Data on five molecules can be found in article PMC6423188, “HYNIC and DOMA conjugated radiolabeled bombesin analogs as receptor-targeted probes for scintigraphic detection of breast tumor” (EJNMMI Research, 2019).

Series [1] concerns the target T1, GRPR (Homo sapiens, UniProt P30550).
T1 construct: endogenous in cells; host or cells: MDA-MB-231 human breast cancer cells (from NCCS, Pune)
The series is described as follows: In vitro receptor binding assay, competition with 99mTc-BNS. The conditions noted are these: unlabeled analogs, radioligand 99mTc-BNS. On the procedure:
One day prior to the assay, cells at the confluence were placed in 12-well plates. […] Inhibitory assays were done on GRPR-expressing MDA-MB-231 human breast cancer cells using the standard procedure with modifications. […] After 1-h incubation, cells were washed twice with cold PBS. Receptor bound radioactivity was recovered by solubilizing the cells with 400 μL 1 N NaOH at 37 °C. Binding activities were evaluated in the gamma counter. IC50 (the best-fit 50% inhibitory concentration) values were determined using nonlinear regression.
It may be mentioned that non-radioactive Re complex can be used in place of its unlabeled ligand to determine the binding affinity after complexation reaction. This is being proposed to use the non-radioactive Re complex in place of its unlabeled ligand to determine the binding affinity after complexation in future studies.

In series [2] the test system is MDA-MB-231 cells. The series is described as follows: Western blot analysis. The class given is cell-based, human. The conditions noted are these: 24 h, BN3, BN4 7.5 and 5 pM, BNS 7.5 pM. An excerpt:
After washing in ice-cold PBS, proteins were extracted from cells with lysis buffer containing 100 mmol/L Tris-HCl, pH 8.0, 150 mmol/L NaCl, 1% sodium dodecyl sulfate, 10% glycerol, 1% Triton X, 5 mmol/L ethylenediaminetetraacetic acid, 1 mmol/L phenyl methyl sulfonyl fluoride, 10 mmol/L sodium fluoride, 1 mmol/L sodium orthovanadate, 1 mmol/L-glycerophosphate, and protease inhibitor cocktail tablets (Roche, Switzerland). Total proteins from cell were also extracted by using standard procedure. Protein concentrations were determined by Bradford reagent (BioRad, USA). Extracted proteins were separated by sodium dodecyl sulphate polyacrylamide gel electrophoresis and transferred to polyvinylidene fluoride (PVDF) membranes. Membranes blocking were done by 5% nonfat milk in Tris-buffered saline containing 0.1% polysorbate-20 and incubated with primary antibodies GRPR (Abcam, USA), VEGF, PCNA, Phospho-p38, and HIF-1α (Santa Cruz Biotechnology) for overnight at 4 °C. β-actin antibodies (Millipore) were used to confirm equal protein loading. Detection of primary antibodies was done by alkaline phosphatase conjugated secondary antibodies (1:5000 dilutions) and the detection was done by colorimetry using NBT-BCIP as substrate (Sigma-Aldrich). Detection of GRPR primary antibody was done by horseradish peroxidase conjugated secondary antibodies. The level of β-actin was used as a loading control and was not altered under any of the condition used.
(In general: A western blot detects proteins with antibodies after separation by electrophoresis.)

Series [3] is described as follows: in vitro. The class given is in vitro ADME. Particulars: rat. The method in brief:
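^99mTc tracer incubated in fresh rat serum at 37 °C for 1 h, proteins precipitated with 10% trichloroacetic acid and centrifuged. Binding % = precipitate counts / (precipitate + supernatant counts) × 100; run in triplicate.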

The nature of series [4]: physchem. The class given is physicochemical. Particulars: pH 7.4. Summed up: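 HPLC-purified 99mTc-labeled peptides were shaken 2 min at room temperature between 1 mL n-octanol and 1 mL PBS (0.025 M, pH 7.4), then centrifuged to separate the phases. Each phase was γ-counted. logD was derived as log10 of the background-corrected octanol/buffer cpm ratio.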
The subject of series [5] is MDA-MB-231 tumor-bearing mice. Put plainly: In vivo biodistribution. The conditions noted are these: for Tumor uptake: MDA-MB-231 tumor; for Tumor uptake / Blood uptake / Heart uptake / Intestine uptake / Kidney uptake / Liver uptake / Lung uptake / Muscle uptake / Pancreas uptake / Spleen uptake / Stomach uptake / Urine + urinary bladder uptake: mean ± SD, n = 3. Set-up: species or system mouse. Summed up:
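BALB/c mice immunosuppressed with cyclosporine-A (30 mg/kg/day i.p.) bore subcutaneous MDA-MB-231 tumours (~0.5 cm); ^99mTc-bombesin analogs given i.v. via tail vein, three mice per group. Organs excised at 5, 30, 60 and 120 min and gamma-counted as decay-corrected %IA/g; blocking used 0.03 nmol tracer (2 MBq) plus 25 nmol unlabelled BN peptide, read at 60 and 120 min.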

Setting [6] is: GRP receptor expressing MDA-MB-231 cells, values printed in Fig. 4.
Where [7] appears, read: 60 min p.i., blocked with excess non-radiolabeled BN peptide.

Where a SMILES comes first, the peptide text is derived from it.

A word on the IC50: it is the concentration at which inhibition is half-maximal. Read a low IC50 as greater potency in that assay.

T1 sequence (P30550 whole entry): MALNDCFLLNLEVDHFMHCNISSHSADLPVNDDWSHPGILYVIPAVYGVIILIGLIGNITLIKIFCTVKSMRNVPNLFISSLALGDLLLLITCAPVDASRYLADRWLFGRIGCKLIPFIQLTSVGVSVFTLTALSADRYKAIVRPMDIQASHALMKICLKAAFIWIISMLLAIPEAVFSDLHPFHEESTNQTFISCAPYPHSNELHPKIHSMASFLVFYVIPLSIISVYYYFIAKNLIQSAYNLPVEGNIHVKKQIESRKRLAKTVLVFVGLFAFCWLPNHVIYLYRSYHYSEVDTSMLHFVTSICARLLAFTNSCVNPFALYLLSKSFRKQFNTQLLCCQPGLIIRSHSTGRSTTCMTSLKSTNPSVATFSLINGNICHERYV

In the case of `CCCC[C@H](NC(=O)[C@@H](Cc1ccccc1)NC(=O)[C@H](Cc1c[nH]cn1)NC(=O)CNC(=O)[C@@H](NC(=O)[C@H](C)NC(=O)[C@H](Cc1c[nH]c2ccccc12)NC(=O)[C@H](CCC(N)=O)NC(=O)[C@H](CC(=O)O)NC(=O)c1ccc(NN)nc1)C(C)C)C(N)=O` [BN1, HYNIC-Asp-[D-Phe^13Nle^14]BN(7-14)NH2] (HELM PEPTIDE1{[NNc1ccc(C(=O)[*:2])cn1].D.Q.W.A.V.G.H.[dF].[Nle].[am]}$$$$V2.0), the IC50 was found to be 4.47 nM in series [1] (setting [6]) and 3.96 nM in series [1] (MDA-MB-231 cells/membranes, 1 h, 37 °C).

For `CCCC[C@H](NC(=O)[C@@H](CC1CCCCC1)NC(=O)[C@H](Cc1c[nH]cn1)NC(=O)[C@H](CCCCN)NC(=O)[C@@H](NC(=O)[C@H](C)NC(=O)[C@H](Cc1c[nH]c2ccccc12)NC(=O)[C@H](CCC(N)=O)NC(=O)[C@H](CC(N)=O)NC(=O)[C@H](CC(=O)O)NC(=O)c1ccc(NN)nc1)C(C)C)C(N)=O` [BN3, HYNIC-Asp-Asn-[Lys^5-D-CHAla^13Nle^14]BN(7-14)-NH2] (HELM PEPTIDE1{[NNc1ccc(C(=O)[*:2])cn1].D.N.Q.W.A.V.K.H.[O=C([C@@H](CC1CCCCC1)N[*:1])[*:2]].[Nle].[am]}$$$$V2.0), the “level of GRPR (Western blot)” value in series [2] is listed as “significantly increased level of GRPR”.

Consider “^99mTc-HYNIC-Asp-Asn-[Lys^11CHAla^13Nle^14]-BN(7-14)NH2 [99mTc-BN3]”, for which, in series [3], the “Percentage of plasma protein binding” value is on record as 26.00%. In addition, the logD entry in series [4] was “− 2.21 ± 0.13”. For the same molecule, in series [5] (5 min p.i.), the tumor/blood ratio is given as 2.37, the tumor/kidney ratio came out at 0.64 and the tumor/muscle ratio amounted to 2.56. In addition, in series [5] (5 min p.i., i.v.), the Tumor uptake amounted to 1.28 ± 0.01 %IA/g, the Blood uptake was determined as 0.54 ± 0.01 %IA/g, the Heart uptake is 0.91 ± 0.03 %IA/g and the Intestine uptake is on record as 1.21 ± 0.06 %IA/g. In addition, in series [5] (5 min p.i., i.v.), the Kidney uptake turned out to be 1.97 ± 0.11 %IA/g, the Liver uptake came out at 0.44 ± 0.03 %IA/g, the Lung uptake is 0.87 ± 0.14 %IA/g and the Muscle uptake turned out to be 0.50 ± 0.01 %IA/g. In series [5] (5 min p.i., i.v.), the Pancreas uptake is recorded as 2.78 ± 0.11 %IA/g, the Spleen uptake came to 0.54 ± 0.04 %IA/g, the Stomach uptake is 0.52 ± 0.02 %IA/g and the “Urine + urinary bladder uptake” value turned out to be 0.61 ± 0.04 %IA/g. Further, in series [5] (30 min p.i.), the tumor/blood ratio amounted to 3.47, the tumor/kidney ratio is reported as 0.76 and the tumor/muscle ratio is listed as 9.83. Further, in series [5] (30 min p.i., i.v.), the Tumor uptake amounted to 2.95 ± 0.01 %IA/g, the Blood uptake stood at 0.85 ± 0.01 %IA/g, the Heart uptake is on record as 0.77 ± 0.02 %IA/g and the Intestine uptake is on record as 1.46 ± 0.05 %IA/g. In series [5] (30 min p.i., i.v.), the Kidney uptake stood at 3.88 ± 0.21 %IA/g, the Liver uptake came to 0.23 ± 0.13 %IA/g, the Lung uptake worked out at 0.62 ± 0.03 %IA/g and the Muscle uptake came out at 0.30 ± 0.02 %IA/g. In series [5] (30 min p.i., i.v.), the Pancreas uptake was 3.59 ± 0.03 %IA/g, the Spleen uptake was determined as 0.46 ± 0.01 %IA/g, the Stomach uptake stood at 0.74 ± 0.04 %IA/g and the “Urine + urinary bladder uptake” value came to 2.80 ± 0.01 %IA/g. In series [5] (60 min p.i.), the tumor/blood ratio was 5.71, the tumor/kidney ratio turned out to be 0.85 and the tumor/muscle ratio was 10.38. In series [5] (setting [7]), this molecule registered a Tumor uptake of 0.54 ± 0.20 %IA/g, a Blood uptake of 0.30 ± 0.01 %IA/g, a Heart uptake of 0.29 ± 0.11 %IA/g and an Intestine uptake of 1.36 ± 0.23 %IA/g. Also, in series [5] (setting [7]), the Kidney uptake came to 3.18 ± 0.20 %IA/g, the Liver uptake turned out to be 0.20 ± 0.03 %IA/g, the Lung uptake is reported as 0.52 ± 0.02 %IA/g and the Muscle uptake was 0.16 ± 0.21 %IA/g. Besides, in series [5] (setting [7]), the Pancreas uptake came out at 0.92 ± 0.02 %IA/g, the Spleen uptake was found to be 0.33 ± 0.03 %IA/g, the Stomach uptake is on record as 0.37 ± 0.10 %IA/g and the “Urine + urinary bladder uptake” value is given as 3.52 ± 0.07 %IA/g. In series [5] (60 min p.i., i.v.), this molecule had a Tumor uptake of 2.70 ± 0.02 %IA/g, a Blood uptake of 0.47 ± 0.04 %IA/g, a Heart uptake of 0.35 ± 0.02 %IA/g and an Intestine uptake of 1.85 ± 0.21 %IA/g. For the same molecule, in series [5] (60 min p.i., i.v.), the Kidney uptake amounted to 3.17 ± 0.17 %IA/g, the Liver uptake is listed as 0.18 ± 0.12 %IA/g, the Lung uptake worked out at 0.50 ± 0.02 %IA/g and the Muscle uptake worked out at 0.26 ± 0.03 %IA/g. For the same molecule, in series [5] (60 min p.i., i.v.), the Pancreas uptake is reported as 2.11 ± 0.06 %IA/g, the Spleen uptake came out at 0.30 ± 0.01 %IA/g, the Stomach uptake was 0.66 ± 0.02 %IA/g and the “Urine + urinary bladder uptake” value is reported as 3.75 ± 0.11 %IA/g. In series [5] (120 min p.i.), the tumor/blood ratio is on record as 7.04, the tumor/kidney ratio turned out to be 1.20 and the tumor/muscle ratio came out at 8.89. In series [5] (120 min p.i., i.v.), this molecule registered a Tumor uptake of 1.69 ± 0.03 %IA/g, a Blood uptake of 0.24 ± 0.01 %IA/g, a Heart uptake of 0.15 ± 0.04 %IA/g and an Intestine uptake of 0.70 ± 0.05 %IA/g. Besides, in series [5] (120 min p.i., i.v.), the Kidney uptake worked out at 1.40 ± 0.13 %IA/g, the Liver uptake is given as 0.11 ± 0.03 %IA/g, the Lung uptake is 0.35 ± 0.11 %IA/g and the Muscle uptake is on record as 0.19 ± 0.02 %IA/g. Moreover, in series [5] (120 min p.i., i.v.), the Pancreas uptake was 1.22 ± 0.04 %IA/g, the Spleen uptake is recorded as 0.12 ± 0.02 %IA/g, the Stomach uptake is given as 0.25 ± 0.01 %IA/g and the “Urine + urinary bladder uptake” value came out at 3.91 ± 0.22 %IA/g.

`CSCC[C@H](NC(=O)[C@@H](Cc1ccc(O)cc1)NC(=O)[C@H](Cc1c[nH]cn1)NC(=O)CNC(=O)[C@@H](NC(=O)[C@H](C)NC(=O)[C@H](Cc1c[nH]c2ccccc12)NC(=O)[C@H](CCC(N)=O)NC(=O)[C@H](CC(=O)O)NC(=O)[C@@H]1CCCN1C(=O)c1ccc(NN)nc1)C(C)C)C(N)=O` [BN2, HYNIC-Pro-Asp-[D-Tyr^13Met^14] BN(7-14)NH2] (HELM PEPTIDE1{[NNc1ccc(C(=O)[*:2])cn1].P.D.Q.W.A.V.G.H.[dY].M.[am]}$$$$V2.0) showed an IC50 in series [1] (setting [6]) of 4.63 nM.

For the molecule `CSCC[C@H](NC(=O)[C@H](CC(C)C)NC(=O)[C@H](Cc1c[nH]cn1)NC(=O)CNC(=O)[C@@H](NC(=O)[C@H](C)NC(=O)[C@H](Cc1c[nH]c2ccccc12)NC(=O)[C@@H](N)CCC(N)=O)C(C)C)C(N)=O` [BNS, reference compound], the “level of GRPR (Western blot)” value in series [2] was “significantly increased level of GRPR”.
